# Assay results reported in article PMC11406491, “A Plasmonic Nanoledge Array Sensor for Selective Detection of Cardiovascular Disease Biomarkers in Human Whole Blood”.
# T1: myoglobin (UniProt P02144 2-154)
# T1 sequence: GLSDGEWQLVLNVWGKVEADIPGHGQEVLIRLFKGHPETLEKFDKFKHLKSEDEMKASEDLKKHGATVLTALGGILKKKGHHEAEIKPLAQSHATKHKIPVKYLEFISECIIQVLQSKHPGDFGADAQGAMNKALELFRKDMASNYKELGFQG
# B1: cTnI-specific aptamer (ssDNA)
# DNA: CGTGCAGTACGCCAACCTTTCTCATGCGCTGCCCCTCTTA
# modifications: 5' amino modifier C6 (5AmMC6)
# Tests used:
# [1] = target: cardiac troponin I (cTnI) (human, UniProt P19429 2-210); test: SPR (transmitted, EOT peak shift); PBS; LOD 0.079 ng/mL; Aptamer immobilized on gold nanoledge chip (cystamine/glutaraldehyde, PEG and glycine blocked); PBS, human serum or whole blood; 20 min incubation; room temperature (stated for stability test); pH and salt not given; settings: protein: commercial
# [2] = target: T1, myoglobin; test: SPR (transmitted, EOT peak shift); up to 125 ng/mL; minimal shift, described as poor binding; human serum (Methods) or PBS (Fig S8); Aptamer immobilized on gold nanoledge chip (cystamine/glutaraldehyde, PEG and glycine blocked); PBS, human serum or whole blood; 20 min incubation; room temperature (stated for stability test); pH and salt not given; settings: protein: commercial
# cardiac troponin I (cTnI), sequence (P19429 2-210): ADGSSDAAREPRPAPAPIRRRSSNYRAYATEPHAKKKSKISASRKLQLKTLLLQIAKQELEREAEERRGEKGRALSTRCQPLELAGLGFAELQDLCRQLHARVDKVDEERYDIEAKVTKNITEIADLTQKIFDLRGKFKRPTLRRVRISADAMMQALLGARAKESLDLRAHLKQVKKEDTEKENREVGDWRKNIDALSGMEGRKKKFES
binder,measurement,setting,value
B1,binding result,[1],binds
same,binding result,[2],no binding
